From patent publication US20170210787A1 (Janssen / Centocor, published 2017)
Like-named read-outs stand apart in the source and are kept apart here.

What was measured:
[1] = target: tau 299-369 (human); experiment: ELISA on biotinylated peptide captured on streptavidin plate, IgG titrated [a]
[2] = target: tau 299-369 (human); experiment: peptide ELISA, 1 ug/mL
[3] = target: tau 299-369 (human); experiment: peptide ELISA, 1 ug/mL; remark: listed apart in the source
[4] = target: tau 299-369 (human); experiment: ELISA on biotinylated peptide captured on streptavidin plate, IgG titrated [a]; remark: listed apart in the source

B1: CBTAU-27.1 (antibody, V domains shown)
VH: QVQLVESGPEMRKPGESLKISCKTSGYIFSDYWTAWVRQLPGKGLQWMGIIYSGDSDTRYHPSVQGHVTMSTDSSLTTAYLQWSSLKASDTGIYYCARLDARVDAGWQLDSWGQGTLVTVSS
VL: DIQLTQSPDSLAVSLGERATINCKSSQSVFSRDNNKNYLAWYQHKSGQPPKLLFFWASSRESGVSDRFSGSGSGTDFTLTIDNLQAEDVALYYCQHYFNTPHNFGQGTKLEIK
With B1 the “EC50 (read off the curve)” value [1] was roughly 0.1 µg/mL, the OD450 [2] was greater than 1.5 od and the OD450 [3] was 1 to 1.5 od. For the same binder, the “EC50 (read off the curve)” value [4] was roughly 0.2 µg/mL.
